T1: membrane-bound 'CRD1 truncated' human HVEM on transiently transfected HEK293F cells (human, UniProt Q92956 76-283)
T1 construct: aa 1-19 are a mouse Ig signal peptide and are left out; Starts with CRD2; also called human HVEM deleted for CRD1; CRD1 truncated HVEM
T1 sequence: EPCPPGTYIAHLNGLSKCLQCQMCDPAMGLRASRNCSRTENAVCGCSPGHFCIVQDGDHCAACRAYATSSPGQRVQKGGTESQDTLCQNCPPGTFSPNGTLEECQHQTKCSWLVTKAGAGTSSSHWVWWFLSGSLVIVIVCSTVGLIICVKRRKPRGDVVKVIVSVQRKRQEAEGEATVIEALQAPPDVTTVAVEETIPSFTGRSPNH

T2: membrane-bound full-length human HVEM on stable HVEM-transfected HEK293F cells (clone no. 128) (human, UniProt Q92956 39-283)
T2 construct: The same cDNA was also expressed on Sf9 insect cells; also called TNFRSF14; CD270
T2 sequence: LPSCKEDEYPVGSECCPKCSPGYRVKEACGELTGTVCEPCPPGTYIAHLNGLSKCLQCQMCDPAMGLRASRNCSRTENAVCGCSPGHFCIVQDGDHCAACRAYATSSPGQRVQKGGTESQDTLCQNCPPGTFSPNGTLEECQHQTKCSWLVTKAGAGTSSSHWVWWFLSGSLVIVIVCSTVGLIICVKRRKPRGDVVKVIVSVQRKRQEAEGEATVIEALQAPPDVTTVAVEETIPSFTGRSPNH


Legend:
[1] = target: T1, membrane-bound 'CRD1 truncated' human …; assay: FACS, undiluted hybridoma supernatant, CRD1 truncated HVEM on HEK293F
Experimental: Generation of human ‘full-length’ HVEM-transfected HEK293F cells (clone no. 128) is described in Example 1a. […] After 72 hours, surface human HVEM expression on transfected cells was analysed by FACS analysis. To this end, stable human full-length HVEM-transfected HEK293F cells and transient human ‘CRD1 truncated’ HVEM-transfected HEK293F cells were put at 10×10⁶ cells/mL in ice-chilled phosphate-buffered saline containing 0.1% BSA (Sigma)/0.05% NaN₃ (PBS/BSA/NaN₃) supplemented with 50 μg/mL human IgGs (blocking of possible Fcγ receptors; Sigma) for 10 minutes at 4° C. Then, 10 μL/tube (i.e., 0.1×10⁶ cells) of these cells were incubated with 100 μL undiluted hybridoma supernatant/tube for 30 minutes at 4° C. Phycoerythrin (PE)-conjugated mouse anti-human HVEM antibody (clone eBioHVEM-122; eBioscience) at 1:20 was run as a positive control antibody. After extensive washing in PBS/BSA/NaN₃, cells were subsequently incubated with 1:200 diluted PE-conjugated goat anti-mouse IgG Fcγ-specific antibodies (Jackson ImmunoResearch) for 30 minutes at 4° C. After extensive washing in PBS/BSA/NaN₃, cells were fixed in 2% formaldehyde in PBS/BSA/NaN₃ for 30 minutes at 4° C. Binding of antibodies was measured using a flow cytometer (model FACSCalibur; BD Biosciences).

[2] = target: T2, membrane-bound full-length human HVEM …; assay: FACS titration on HVEM-HEK293F, half-maximum binding
Experimental: In order to determine the relative binding affinity of purified BTLA/HVEM blocking chimeric mouse/human anti-human HVEM antibodies no. 36H12, 45H6, 48H6, 11H7, and 49G4 for human HVEM, FACS analysis was used.
To this end, stable human full-length HVEM-transfected HEK293F cells (clone no. 128; see Example 1(a) above) were put at 10×10⁶ cells/mL in ice-chilled PBS containing 0.1% BSA (Sigma)/0.05% NaN₃ (PBS/BSA/NaN₃) supplemented with 50 μg/mL human IgGs (blocking possible Fcγ receptors; Sigma) for 10 minutes at 4° C. Then, 10 μL/tube (i.e., 0.1×10⁶ cells) of these cells were incubated with or without 100 μL titrated (in PBS/BSA/NaN₃) purified BTLA/HVEM blocking chimeric mouse/human anti-human HVEM antibody/tube for 30 minutes at 4° C. After extensive washing in PBS/BSA/NaN₃, cells were subsequently incubated with 1:200 diluted PE-conjugated goat anti-human IgG Fcγ-specific antibodies (Jackson ImmunoResearch) for 30 minutes at 4° C. After extensive washing in PBS/BSA/NaN₃, cells were fixed in 4% formaldehyde in PBS/BSA/NaN₃ for 30 minutes at 4° C. Binding (geo-mean fluorescence intensity) of chimeric mouse/human anti-human HVEM antibodies no. 36H12, 45H6, 48H6, 11H7, and 49G4 on membrane human HVEM was measured using a flow cytometer (FACSCalibur; BD Biosciences). For comparison, purified BTLA/HVEM blocking mouse anti-human HVEM antibody counterparts no. 36H12, 45H6, 48H6, 11H7, and 49G4 were run in parallel, and their binding was monitored as described in Example 2 (a).

[3] = target: T2, membrane-bound full-length human HVEM …; assay: FACS, Ab 10 µg/mL then biotinylated BTLA on HVEM-HEK293F
Experimental: (§1) Generation of human ‘full-length’ HVEM-transfected HEK293F cells (clone no. 128) is described in Example 1a. Binding of soluble human BTLA, of soluble human CD160, of soluble human LIGHT, and of soluble human TNFβ on surface human HVEM-transfected cells was analysed by FACS analysis. To this end, stable human full-length HVEM-transfected HEK293F cells were put at 10×10⁶ cells/mL in ice-chilled phosphate-buffered saline containing 0.1% BSA (Sigma)/0.05% NaN₃ (PBS/BSA/NaN₃) supplemented with 50 μg/mL human IgGs (blocking possible Fcγ receptors; Sigma) for 10 minutes at 4° C. Then, 10 μL/tube (i.e., 0.1×10⁶ cells) of these cells were incubated with or without 100 μL purified chimeric mouse/human anti-HVEM antibody at 10 μg/mL/tube or a human IgG4/κ (Sigma) negative isotype control at 10 μg/mL/tube for 30 minutes at 4° C. After this (i.e., without washing), cells were subsequently incubated with 1 μg/mL soluble biotinylated human BTLA (Sino Biological Inc), with 10 μg/mL soluble his-tagged human CD160 (Sino Biological Inc), with 1 μg/mL soluble his-tagged human LIGHT (Sino Biological Inc), or with 0.1 μg/mL soluble biotinylated human TNFβ (Sino Biological Inc) in PBS/BSA/NaN₃ for 30 minutes at 4° C. After extensive washing in PBS/BSA/NaN₃, cells were incubated with 1:200 diluted PE-conjugated streptavidin (detection BTLA and TNFβ; Jackson ImmunoResearch) or with biotinylated mouse anti-his antibody (detection CD160 and LIGHT; R&D Systems) at 10 μg/mL for 30 minutes at 4° C. After extensive washing in PBS/BSA/NaN₃, cells were incubated with 1:200 diluted PE-conjugated streptavidin (detection CD160 and LIGHT; Jackson ImmunoResearch) for 30 minutes at 4° C. After extensive washing in PBS/BSA/NaN₃, cells were fixed in 4% formaldehyde in PBS/BSA/NaN₃ for 30 minutes at 4° C. Binding of ligands BTLA, CD160, LIGHT and TNFβ on membrane human HVEM was measured using a flow cytometer (model FACSCalibur; BD Biosciences). For comparison, purified BTLA/HVEM blocking mouse anti-human HVEM antibody counterparts no. 36H12, 45H6, 48H6, 11H7, and 49G4 at 10 μg/mL/tube and a mouse IgG1 (BD Biosciences) negative isotype control at 10 μg/mL/tube were run in parallel.

[4] = target: T2, membrane-bound full-length human HVEM …; assay: FACS, Ab 10 µg/mL then biotinylated TNFβ on HVEM-HEK293F
Experimental: as §1

[5] = target: T2, membrane-bound full-length human HVEM …; assay: FACS, biotinylated BTLA-Fc pre-bound, then Ab 20 µg/mL
Experimental: (§2) Generation of human ‘full-length’ HVEM-transfected HEK293F cells (clone no. 128) is described in Example 1a. Displacement of pre-bound soluble human BTLA, soluble human CD160, soluble human LIGHT, and soluble human TNFβ from surface human HVEM-transfected cells was analysed by FACS analysis. To this end, stable human full-length HVEM-transfected HEK293F cells were put at 10×10⁶ cells/mL in ice-chilled phosphate-buffered saline containing 0.1% BSA (Sigma)/0.05% NaN₃ (PBS/BSA/NaN₃) supplemented with 50 μg/mL human IgGs (blocking possible Fcγ receptors; Sigma) for 10 minutes at 4° C. Then, 10 μL/tube (i.e., 0.1×10⁶ cells) of these cells were incubated without or with 50 μL soluble biotinylated human BTLA-human Fcγ fusion protein (Sino Biological Inc) at 2 μg/mL/tube, with soluble his-tagged human CD160 (Sino Biological Inc) at 20 μg/mL/tube, with soluble his-tagged human LIGHT (Sino Biological Inc) at 2 μg/mL/tube, or with soluble biotinylated human TNFβ (Sino Biological Inc) at 0.2 μg/mL/tube in PBS/BSA/NaN₃ for 30 minutes at 4° C. After this (i.e., without washing), cells were subsequently incubated with 50 μL purified chimeric mouse/human anti-HVEM antibody at 20 μg/mL/tube or a human IgG4/κ (Sigma) negative isotype control at 20 μg/mL/tube for 30 minutes at 4° C. […] After extensive washing in PBS/BSA/NaN₃, cells were incubated with 1:200 diluted PE-conjugated streptavidin (detection CD160 and LIGHT; Jackson ImmunoResearch) for 30 minutes at 4° C. After extensive washing in PBS/BSA/NaN₃, cells were fixed in 4% formaldehyde in PBS/BSA/NaN₃ for 30 minutes at 4° C. Residual binding of ligands BTLA, CD160, LIGHT and TNFβ on membrane human HVEM was measured using a flow cytometer (model FACSCalibur; BD Biosciences).

[6] = target: T2, membrane-bound full-length human HVEM …; assay: FACS, biotinylated TNFβ pre-bound, then Ab 20 µg/mL
Experimental: as §2

| Binder | binding result [1] | EC50 [2] [µg/mL] | % blocking of ligand binding [3] [%] | % blocking of ligand binding [4] [%] | % displacement of pre-bound ligand [5] [%] | % displacement of pre-bound ligand [6] [%] |
| --- | --- | --- | --- | --- | --- | --- |
| mouse anti-human HVEM antibody no. 45H6 (antibody, mouse IgG1, V domains shown, mouse IgG1/kappa; also called 45H6 (mouse)) VH: DVQLVESGGGLVQPGGSRKLSCAASGFTFSSFGMHWVRQAPEKGLEWVAYISSGNSNIYYVDTVKGRFTISRDNPKNTLFLQMTSLRSEDTAMYYCARKRAYGDYSGFSMDYWGQGTSVTVSS VL: DIVMTQSQKFMSTSVGDRVSVTCKASQNVDTNVAWYQQKPGQSPKALIYSASYRYSGVPDRFTGSGSGTDFTLTISNVQSEDLAEYFCQQYNKFPLTFGGGTKLEIK | no binding | 0.26 | > 95 | – | – | – |
| mouse anti-human HVEM antibody no. 49G4 (antibody, mouse IgG1, V domains shown, mouse IgG1/kappa; also called 49G4 (mouse)) VH: EVQLQQSGAELVKPGASVKLSCRASGFNIKDTYMHWVKQRPEQGLEWIGRIDPARGNTKYDPKFQGKATITADTSSNTAYLQLSSLTSEDTAVYYCASAMDYWGQGTSVTVSS VL: DVLMTQTPLSLPVSLGDQASISCRSSQSIVHSNGNTYLEWFLQKPGQSPKLLIYKVSNRFSGVPDRFSGSGSGTDFTLKISRVEAEDLGVYYCFQGSHVPLTFGAGTKLELK | no binding | 0.266 | > 95 | > 85 | – | – |
| chimeric mouse/human IgG4/kappa anti-human HVEM antibody no. 11H7 (antibody, V domains shown, 40/41 within the entry; Stabilized human IgG4 (S239P) already in the entry; also called chimeric 11H7) VH: QVQLKQSGPGLVQPSQSLSITCTVSGFSLTIYGVHWVRQSPGKGLEWLGVIWSGGSTDYNAAFISRLSISKDNSKSQVFFKMNSLQANDTAIYYCARRDYGSRSFYYAMDYWGQGTSVTVSS VL: EIVLTQSPALMAASPGEKVTITCSVSSSISSSNLHWYQQKSETSPKPWIYGTSNLASGVPVRFSGSGSGTSYSLTISSMEAEDAATYYCQQWSSYPLTFGGGTKLEIKR | – | 0.63 | > 95 | > 55 | > 95 | < 20 |
| mouse anti-human HVEM antibody no. 11H7 (antibody, mouse IgG1, V domains shown, mouse IgG1/kappa; also called 11H7 (mouse)) VH: QVQLKQSGPGLVQPSQSLSITCTVSGFSLTIYGVHWVRQSPGKGLEWLGVIWSGGSTDYNAAFISRLSISKDNSKSQVFFKMNSLQANDTAIYYCARRDYGSRSFYYAMDYWGQGTSVTVSS VL: EIVLTQSPALMAASPGEKVTITCSVSSSISSSNLHWYQQKSETSPKPWIYGTSNLASGVPVRFSGSGSGTSYSLTISSMEAEDAATYYCQQWSSYPLTFGGGTKLEIK | no binding | 0.532 | > 95 | > 60 | – | – |
